Results published in a protein production outcome set (Wang et al. 2014).

Experiment: label from the status in PepcDB records
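Note: failed if final PepcDB status was selected cloned or expressed and not failed if soluble or beyond.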

MNGFIPIIASIAISLPLLIFGSHSDVKKRSINSFTFLPIFILALAFYILDKDVVMSIVTILSTVAVFIKPNIYVYIVLPLIIIGIGFFDTINLLTILIVGMFLLTGFGELLFGIGDIKGIVSVVLLFSSIPRFNNYIPFSIVFVFFIAVASGGALLYFVVYARLNGLKLRGLNVLYDEHEYLRNTIKYQLKDTNSGKVMIYRVPFLVPILVSTVLSLIAQLIIYASIHT
protein production: failed

MNGGKTAVIVLGWNGAADTLACLASLAKVRQPAFTVILADNGSTDGTVGLVRQAFPEVEILELGRNLGFAAGNNAAFRSLRGRGFDRVVFLNNDTVVDPGFLQPLLDELQKPWVGIAAPKILYMDDPGRIWYAGGVLESATGLIEHTGIRQPDGPRFDTPEPVWYATGCCLAMRCRVFEEVGGFDERFRMYGEDVDLSMKVRERGLIVMYQPASRIWHRVSASSGGEMNLGKQLRKSGAAMMLFAKHGMIGGLVLYPLLLPFRALLGLLRFQFFRWTSSQEREEA
protein production: failed

MNGGTFTTGKEKERAGIYFNFKTTAQERVSLSERGTVALPVASSWGEAKTFVSISSVEDLNKKVGLSIDDPSLLLLREAKKNAKTVLMYRLTEGVRASADIAEGVKATAVYGGTKGNDIIIRINQNVLDANSFDVTTYMDESEVDKQTVKKAEELTANGYVTFTGTGDLSSTIPLTGSEGDTAAETLNASAGIRLSGGTDKAPVNSDYTDFLAAAETESFDVIALPVAEGDQLKATFAAFIKRLRDGQGQKVQGVTANYAGDYEGIINVTEGVLLEDGTEVTPDKATAWVAGASAGATFNQSLTFVEYEGAVDVLHRLDHDTIVERLGKGEFLFTFDARDKSVSVEKDINSLVTFTAEKNKKFAKNKIVRVLDAVNNDLTRELKALIKSRKGSGSDIPASEDGLQYVKTMITQYMTTLQDAGGITGFDSDEDITISMNEDRDGFLIDLLYSLSTQQKNSTLMWRLEHHHHHH
protein production: not failed

MNGRRTIGEDGLVFGLVVIVALVAAVVVGTVLGHRYRVGPPVLLILSGSLLGLIPRFGDVQIDGEVVLLLFLPAILYWESMNTSFREIRWNLRVIVMFSIGLVIATAVAVSWTARALGMESHAAAVLGAVLSPTDAAAVAGLAKRLPRRALTVLRGESLINDGTALVLFAVTVAVAEGAAGIGPAALVGRFVVSYLGGIMAGLLVGGLVTLLRRRIDAPLEEGALSLLTPFAAFLLAQSLKCSGVVAVLVSALVLTYVGPTVIRARSRLQAHAFWDIATFLINGSLWVFVGVQIPGAIDHIAGEDGGLPRATVLALAVTGVVIATRIAWVQATTVLGHTVDRVLKKPTRHVGFRQRCVTSWAGFRGAVSLAAALAVPMTTNSGAPFPDRNLIIFVVSVVILVTVLVQGTSLPTVVRWARMPEDVAHANELQLARTRSAQAALDALPTVADELGVAPDLVKHLEKEYEERAVLVMADGADSATSDLAERNDLVRRVRLGVLQHQRQAVTTLRNQNLIDDIVLRELQAAMDLEEVQLLDPADAE
protein production: failed

MNGSADAGPRPRKYVFITGGVVSSLGKGILTSSLGALLRARGYRVTAIKIDPYVNVDAGTMRPYEHGEVFVTADGAETDLDIGHYERFLDMDLSRGNNLTTGQVYLSVIQKERRGEYLSQTVQVIPHITDEIKERIRKVAEEQKAEIVVVEVGGTVGDIESLPFLEAIRQFRFDEGEGNTLYLHLTLVPYLETSEEFKTKPTQHSVATLRGVGIQPDILVLRSARPVPEEVRRKVALFTNVRPGHVFSSPTVEHLYEVPLLLEEQGLGRAVERALGLEAVIPNLSFWQEAVRVLKHPERTVKIAIAGKYVKMPDAYLSLLEALRHAGIKNRARVEVKWVDAESLEAADLDEAFRDVSGILVPGGFGVRGIEGKVRAAQYARERKIPYLGICLGLQIAVIEFARNVAGLKGANSTEFDPHTPHPVIDLMPEQLEVEGLGGTMRLGDWPMRIKPGTLLHRLYGKEEVLERHRHRYEVNPLYVDGLERAGLVVSATTPGMRGRGAGLVEAIELKDHPFFLGLQSHPEFKSRPMRPSPPFVGFVEAALAYQERA
protein production: not failed

MNGSEFVPLSLTPLLIGVLAAVACALPGNFLVLRRQALIGDAISHVVLPGIVVAFLLTGAIAAWPMMLGAAGAAVVAVVLIEAIRRLGRIEPGAAMGVVFTTMFAAGVLLLEQTDTSTVHLDVEHALYGNLESLIWLDATGWASLLDPVALAGLPVELSRILVTLVGVVGFIWLFWRPLKLSTFDEGFARTLGIRTNLLGLALVIVAAVAAVAAFDAVGSIIVIAMFICPPAAARMMTNTLEGQVGWSVVFAILSAVLGYVLAGYGPLWLGARDAVSAAGMIATMSGLILALTARFGPCRSRTGAPVQA
protein production: failed

MNGSLQRSHMEIVPDTSVVIDGRVSDQVKADADPDTDVDGMGFAGATVVVPEAVVGELEAQANDGRETGWEGLEELQTLVDLAEEGTIDVEYVGRRPDAIEKREAGEGQIDALIRDIAGDRDATLVTSDDVQAEVARAKGLAVEFVDPVKRTVDRLQI
protein production: failed

MNGSLQTADRTPVDYVNPYIGNISHLLVPTFPTIQLPNSMLRVYPERADYTSELLKGLPLIVTNHRERSAFNFSPYQGEKLRPVITYNYDNEHITPYSFDVELDDNRMKAEYALSHQSAIYRITYEADKPAYLIVNSRNGSIHANENFISGRQQLNDNTNVYVYIEAQEKPLEHHHHHH
protein production: not failed

MNGYTISAIYAHIASGISLEKRKGFFEMLDEIINNKVEKVIITYKDRLSRVGFDLFSYLFRKYRTEIAVISEVGNTKLDSEEVFEEIVSMLHSYSMKMYSKRKNHYIEVGYEG
protein production: failed

MNHDIDIKKVRLNCFRQSKVPGEFMLQMRIPGGIVDAKYLSQIQEIAETWGNGTFHMGMRQTFNIPGIKYENIQAVNKFIENYLQEVEVDRCNCDMKVDENGYPTIGARNVMACIGNSHCIKANVDTKDMANKIEKLVFPSHYHIKVSVAGCPNDCAKGHFQDFGVIGQARMEYHEERCIGCGACVRACEHHATRVLSLNDKGLVDKDPCCCVGCGECVLACPASAWTRKPEKFYRIVIGGRTGKQTPRMGKTFINFATEEVVLGIFANWQKFSAWALDYKPEYLHGGHLIDRAGYHKFKEIILDGVELNPEALVADNIFWAETEYRSNFNVKPIKMHKTIESNRPLRLEHHHHHH
protein production: failed

MNHEAVQNYYGEVLQSSADLQTNACCTPDAVPAHLKPVLGKLHDEVMARYYGCGLIAPLALEGARILDLGCGAGRDVYALSALVGESGAVVGVDMTPAQLEVAQAHRAYHAEVFGHAAPNTEFHQGYIEKLDDLPLKPGSFDIIVSNCVLNLATDKAAVLRGAQRLLKPGGEMYFSDVYADRRIPEALARDEVLYGECLSGALYWNDFLSLARGAGFGDPRMVESRLLTIENPELERRVGPIRFLSATYRLFNLAGLEPDCEDYGQAVIYKGTVPHAPHEFVLDDHHVIETGKVFPVCGNSWRMLAESRFAPHFQFIGDFSTHYGIFAGCGGASPFNGLSPVAPAASGGCC
protein production: failed

MNIAPLKVSLLSLALLLSPVASLPAHAACTANLALQPASSLPALGGRLVYHSYMEYGDGSSNLYLHDFKSKSTRQLNQPGWNIEDPMNAHFSPDGRYLTFMGRQNGAWHVFAWAIGGTQAPSNLTAAIGGRNEDPKFSFDGRQVVLKHEGDIRLATLVFNGDGSVGVSAWKAVTGDGWSTEESMPFLTPSGKYVVYATGAGDSLRVVRRNLENGQVCALATPAAGGRDYYPVVRDYTAYFLSRTQPAGNDQLAMVVPNSPPGTPAILPLNHCQGDNSDAAPVNEDYLIFSSTSFDPTYSLLLGDIAAARVWRLDPAQINLPDGRQKLGASYTAAR
protein production: failed

MNIAPVVDSLSAPAMLEELKQSPPWLRLSLLFPLFFLNGWLIYKAMGFLQPLSSLLVAAALLAFLLDIPVRILVEKGLKRPWAVASVLLIALVVISLFLLIVIPLAIDQLGQLLDNLPGWFRSGNAQLLMLQAWVNEHYANLQVDLQPLISQAIEKLSRILNSFGNQLLGLVGVTISTSINGLILLVLTIFLVLGGEKIWDGIFSWFPHPWQRDLQNLIRDTFEGYFATQAILAGILSVAQMVVFTLLQAPYAILFAITIGLSTLIPFASALSIIVISLLLMLENFWLGVKILLAAVIVGQINDNVISPRLMGNRTGLNPAWIIVSLFVGSKLGGVLGLLVAVPLASVIKATSDRLRGLPKKSGEQPAEVSVVST
protein production: failed

MNIEDDENKEKKETCLSYIKKINMSEIINDEAIGKRAEYLWNLALSAVYINVKLSMKYITLIKKITKNNLLFDNICCHYCNLIYIPFYNCKITHSPNQGKATYTCLLCKRKKKINLQHLSKHKNIYPLKHSDKHKPSTSNLSNVNFFLINEIDNYEIKKNNVPLNKDDTSNTENQLITKQENKNEDTLKDVSCADMQKEEHIINQDNIINQDNIINQDNIINQDNIINQDNIINQDNIINQDNIINQDNIINQDNIINQDNIINKNDMYQNLSYLFRIDYGINKDDTQKGNEIYDKSIVNESEKCKSVHIENNKNDDNKNMNSESKNIKNERKRKSQNNNIAQNKNQGFPNVNMNDGFLNFNKSKKKKGKSILDIL
protein production: failed

MNIFTEAAKLEEQNCPFAMAQIVDSRGSTPRHSAQMLVRADGSIVGTIGGGMVERKVIEESLQALQERKPRLFHGRMARNGADAVGSDCGGAMSVFISVHGMRPRLVLIGAGHVNRAIAQSAALLGFDIAVADIYRESLNPELFPPSTTLLHAESFGAAVEALDIRPDNFVLIATNNQDREALDKLIEQPIAWLGLLASRRKVQLFLRQLREKGVAEEHIARLHAPVGYNIGAETPQEIAISVLAEILQVKNNAPGGLMMKPSHPSGHQLVVIRGAGDIASGVALRLYHAGFKVIMLEVEKPTVIRCTVAFAQAVFDGEMTVEGVTARLATSSAEAMKLTERGFIPVMVDPACSLLDELKPLCVVDAILAKQNLGTRADMAPVTIALGPGFTAGKDCHAVIETNRGHWLGQVIYSGCAQENTGVPGNIMGHTTRRVIRAPAAGIMRSNVKLGDLVKEGDVIAWIGEHEIKAPLTGMVRGLLNDGLAVVGGFKIGDIDPRGETADFTSVSDKARAIGGGVLEALMMLMHQGVKATKEVLEVALEHHHHHH
protein production: failed

MNIGSMDIQKIGMITSYRNLAKRADWLWQQTPQQFGIWQNIQIQALSGKPDFLLMYQFDFPKDNQQTSLIDKLRQKLQNPQVNVESLLRDVPKEKIIYLLREPPLDEIVEKNKRYYQEAKKYCGYISGPDDFAPKPDYMPAIWYHNNSFRELNEMPVPEKVFPCSWITSGISRTVNHRRRLKFVELIQASEVKCDVYGRDLPIWAKSLGELGNKWYGMAPYYYNLSIENYADNDWYVSEKLWDALLAWCLPIYYGGPAADKLLPPGSFLRLPSLDEKGIAYIQEVTATPDAWYAAKDAIAEARQLILHKLNLLNWLSEFVTQFS
protein production: failed

MNIGTFDRLLFAYSIGSHILIVLMSIGLSVILPVLEYIAIKYKDVYYDLLTRRVAKALVMFFAVGTASGAVMAVELIDLFPKFMTIIAVVGVLPFYYEIFAFFLETIMLVSYYYYWDVFKNRMHHWLLTFGVAGGTLASAVFITMINAWMNTPNGFNISYYEKTGKLIDVNPFITALTPSTGREVFHVVIVTAFAGLMVLGAFFAYQYLRAKTEEAKTLYMKGLKVTFPMNMFLIIMAGLSGTLEMSGLLTYQPEKYAALDLNPYPIARDAPEHLFGTIVEKNGHYYVLGGIKIPFVQSLLAGNGNLNTPVPGLSQFPTSTWPPLAVHDTFDLMVIGGTLLGLFLLSVLIAWILKKKPYESKGFMVAQILFAILTIPIYIGGWVTDEVGRQPWIIYNVMTVYQAANYSPSIIVPGYLIMAFYTILMPFSYWYAFRLMKQGDVKKEISSYKMPSTAHGR
protein production: failed

MNIIMNINSKAKGFVCGAVAAATYGMNPLFTLPLYKEGMSVDSVLFYRYGFAVLILGILMKVQGQSFALKKNEVLPLIVGGLLFSASSLLLFLSYKHMDAGIASTILFVYPVMVALIMFLFFHEKVSLLTVFCILLALSGIGLLYKGEGGETLSLVGMLLVILSSLSYAVYIVGVNHSTLKLMSTAKLTFYALLFGLSIYIVRLNFCSDLQAVPSLPAWGNILAMAFLPTVISLVCTAVSIHTIGSTSTAILGALEPVTALFFGVMIFGERLTPRLMLGILMILVAVTFIVVGKPLMTFLKEEVAGGMKRKLTR
protein production: failed
